The source of these data is paper PMC10272835, “Exploration of T cell immune responses by expression of a dominant-negative SHP1 and SHP2” (Frontiers in Immunology, 2023).

In assay [1] the target is phosphorylated PD1 ITIM peptide. The assay is described as follows: ELISA; peptides coated at 0.5 µg/ml on Nunc MaxiSorp plates; His-tagged SH2 protein from 10 µg/ml with 1:3 serial dilutions in PBS 0.5% BSA; detected with anti-His-tag antibody, absorbance at 450 nm. (In general: ELISA stands for enzyme-linked immunosorbent assay.)
The target in assay [2] is phosphorylated PD1 ITSM peptide. The description is as above.

Regarding “C-terminal SH2 domain of SHP1 (domain or fragment)”, the EC50 – broadly, the concentration at which the effect is half-maximal – was found to be 33.7 nM in assay [1] and 1.69 nM in assay [2].
Taken in the same sequence, the figures for “C-terminal SH2 domain of SHP2 (domain or fragment)” were 5.56 nM and 1.85 nM.
The matching figures for “N-terminal SH2 domain of SHP2 (domain or fragment)”: 12 nM and 4.58 nM.
The matching figures for “dual SH2 domains of SHP1 (domain or fragment)”: 21.4 nM and 15.3 nM.
Turning to “dual SH2 domains of SHP2 (domain or fragment)”, the values for the EC50 in assay [1] and in assay [2] were 1.69 nM and 1.24 nM, respectively.
